Data taken from US20210324068A1 (H LUNDBECK A S, published 2021).

Molecular target: T1, Pituitary Adenylate Cyclase-Activating Polypeptide 38 (PACAP38) (Homo sapiens, not fully specified; C-terminal lysine is amidated; N-terminally or C-terminally biotinylated in the HTRF binding assay and N-terminally biotinylated in the PC-12 cell binding assay)
T1 construct: synthetic peptide (American Peptide; AnaSpec for biotinylated forms); also called human PACAP38; PACAP 1-38
T1 peptide: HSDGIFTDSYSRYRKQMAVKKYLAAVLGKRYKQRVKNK
Assay: SPR ProteOn, Ab immobilized

Kd: 0.027 nM | koff: 1e-05 s⁻¹
B1: Ab22 (antibody, V domains shown)
VH: QEQLVESGGGLVQPEGSLTLTCTASGFDFSSNAMCWVRQAPGKGLEWIGSIYNADGKNYYAIWAKGRFTISRTSSTTVTLQMTSLTAADTATYFCARDFDLWGQGTLVTVSS
VL: AAVLTQTPSPVSAAVGGTVTINCQSSQSVYDNDWLAWFQQKPGQPPKLLIYLTSTLASGVPSRFSGSGSGTQFTLTISGVQCDDAATYYCLGGYDEDGDTHVFGGGTEVVVKR
